The target in experiment [1] is T1, EPAS (peptide code EPAS-001) peptide on HLA-A*02:01 (human).
T1 peptide: KALEGFIAV
The experiment can be described thus: cytokine release.

The target in experiment [2] is T2, KIAA103 (peptide code KIAA103-002) peptide on HLA-A*02:01 (human).
T2 peptide: KVLNKVITV
Kind of experiment: cytokine release.

For experiment [3], the target named is T3, TBC1D9 (peptide code TBC1D9-002) peptide on HLA-A*02:01 (human).
T3 peptide: LLLPDVIKV
The experiment can be described thus: cytokine release.

Experiment [4] deals with T4, PTRF (peptide code PTRF-001) peptide on HLA-A*02:01 (human).
T4 peptide: KLLEKVRKV
The experiment can be described thus: cytokine release.

Experiment [5] has as its target T5, TMTC4 (peptide code TMTC4-001) peptide on HLA-A*02:01 (human).
T5 peptide: NVLEIVQKV
The experiment can be described thus: cytokine release.

In experiment [6] the target is T6, TMEM175 (peptide code TMEM175-001) peptide on HLA-A*02:01 (human).
T6 peptide: ILLPYVSKV
The experiment can be described thus: cytokine release.

The target in experiment [7] is T7, GALNTL4 (peptide code GALNTL4-001) peptide on HLA-A*02:01 (human).
T7 peptide: KLTEYVDKV
The experiment can be described thus: cytokine release.

In experiment [8] the target is T8, RASAL2 (peptide code RASAL2-002) peptide on HLA-A*02:01 (human).
T8 peptide: SVLEPVISV
The experiment can be described thus: cytokine release.

The target of experiment [9] is T9, NSD1 (peptide code NSD1-001) peptide on HLA-A*02:01 (human).
T9 peptide: KVQEQVHKV
The experiment can be described thus: cytokine release.

The target in experiment [10] is T10, PSME2 (peptide code PSME2-001) peptide on HLA-A*02:01 (human).
T10 peptide: KVLERVNAV
Kind of experiment: cytokine release.

Experiment [11] deals with T11, MAGEA1 (peptide MAGEA1-003) peptide on HLA-A*02:01 (human).
T11 peptide: KVLEYVIKV
The experiment can be described thus: multimer staining.

B1: R42P3A9 (TCR, V domains shown)
Valpha: GIQVEQSPPDLILQEGANSTLRCNFSDSVNNLQWFHQNPWGQLINLFYIPSGTKQNGRLSATTVATERYSLLYISSSQTTDSGVYFCAVHNFNKFYFGSGTKLNVKP
Vbeta: AAGVIQSPRHLIKEKRETATLKCYPIPRHDTVYWYQQGPGQDPQFLISFYEKMQSDKGSIPDRFSAQQFSDYHSELNMSSLELGDSALYFCASSLLGQGYNEQFFGPGTRLTVL
B1: the binding result in [1], in [2], in [3], in [4], in experiment [5] and in experiment [6] was “no recognition” each time. Also, the binding result in experiment [7] is reported as “no recognition”; in [8], “no recognition”; in experiment [9], “no recognition”; in experiment [10], “no recognition”; in experiment [11] it was “recognises”.

B2: R59P2E7 (TCR, V domains shown)
Valpha: KQEVTQIPAALSVPEGENLVLNCSFTDSAIYNLQWFRQDPGKGLTSLLLIQSSQREQTSGRLNASLDKSSGRSTLYIAASQPGDSATYLCAVNSDYKLSFGAGTTVTVRA
Vbeta: AAGVIQSPRHLIKEKRETATLKCYPIPRHDTVYWYQQGPGQDPQFLISFYEKMQSDKGSIPDRFSAQQFSDYHSELNMSSLELGDSALYFCASSLGLGTGDYGYTFGSGTRLTVV
Regarding B2, the binding result in experiment [1], in experiment [2], in experiment [3], in experiment [4], in experiment [5] and in experiment [6] was “no recognition” throughout. Further, the binding result in experiment [7] was “no recognition”; in [8] it was “no recognition”; in experiment [9] it was “no recognition”; in experiment [10] it was “no recognition”; in experiment [11], “recognises”.

B3: R26P2A6 (TCR, V domains shown)
Valpha: QKEVEQDPGPLSVPEGAIVSLNCTYSNSAFQYFMWYRQYSRKGPELLMYTYSSGNKEDGRFTAQVDKSSKYISLFIRDSQPSDSATYLCAMSDVSGGYNKLIFGAGTRLAVHP
Vbeta: EAQVTQNPRYLITVTGKKLTVTCSQNMNHEYMSWYRQDPGLGLRQIYYSMNVEVTDKGDVPEGYKVSRKEKRNFPLILESPSPNQTSLYFCASTTPDGTDEQFFGPGTRLTVL
In the case of B3, the binding result in [1], in [2], in experiment [3], in experiment [4], in [5] and in [6] was “no recognition” in each case. Further, the binding result is on record as “no recognition” in experiment [7]; “no recognition” in [8]; “no recognition” in experiment [9]; “no recognition” in experiment [10]; “recognises” in [11].

B4: R26P3H1 (TCR, V domains shown)
Valpha: AQSVAQPEDQVNVAEGNPLTVKCTYSVSGNPYLFWYVQYPNRGLQFLLKYITGDNLVKGSYGFEAEFNKSQTSFHLKKPSALVSDSALYFCAVRDMNRDDKIIFGKGTRLHILP
Vbeta: DGGITQSPKYLFRKEGQNVTLSCEQNLNHDAMYWYRQDPGQGLRLIYYSQIVNDFQKGDIAEGYSVSREKKESFPLTVTSAQKNPTAFYLCASSRAEGGEQYFGPGTRLTVT
B4: the binding result in experiment [1], in experiment [2], in experiment [3], in experiment [4], in experiment [5] and in [6] was “no recognition” throughout. Moreover, the binding result in experiment [7] is “no recognition”; in experiment [8], “no recognition”; in experiment [9], “no recognition”; in [10], “no recognition”; in experiment [11], “recognises”.

B5: R26P1A9 (TCR, V domains shown)
Valpha: SQQGEEDPQALSIQEGENATMNCSYKTSINNLQWYRQNSGRGLVHLILIRSNEREKHSGRLRVTLDTSKKSSSLLITASRAADTASYFCLIGASGSRLTFGEGTQLTVNP
Vbeta: DAGVIQSPRHEVTEMGQEVTLRCKPISGHDYLFWYRQTMMRGLELLIYFNNNVPIDDSGMPEDRFSAKMPNASFSTLKIQPSEPRDSAVYFCASSYFGWNEKLFFGSGTQLSVL
In the case of B5, the binding result in experiment [1], in [2], in experiment [3], in experiment [4], in experiment [5] and in experiment [6] was “no recognition” in each case. Besides, the binding result in experiment [7] was “no recognition”; in experiment [8] it was “no recognition”; in experiment [9] it was “no recognition”; in experiment [10] it was “no recognition”; in experiment [11], “recognises”.

B6: R37P1H1 (TCR, V domains shown)
Valpha: AQTVTQSQPEMSVQEAETVTLSCTYDTSESNYYLFWYKQPPSRQMILVIRQEAYKQQNATENRFSVNFQKAAKSFSLKISDSQLGDTAMYFCAFGYSGGGADGLTFGKGTHLIIQP
Vbeta: DAGVTQSPTHLIKTRGQQVTLRCSPKSGHDTVSWYQQALGQGPQFIFQYYEEEERQRGNFPDRFSGHQFPNYSSELNVNALLLGDSALYLCASSNEGQGWEAEAFFGQGTRLTVV
Take B6: the binding result in [1], in [2], in experiment [3], in experiment [4], in experiment [5] and in experiment [6] was “no recognition” in each case. The binding result in [7] is reported as “no recognition”; in [8] it was “no recognition”; in experiment [9], “no recognition”; in experiment [10], “no recognition”; in [11] it was “recognises”.

Source of the values: patent US20190321478A1 (published 2019).
